B1: F131 (antibody, V domains shown)
VH: EVQLLESGGGVVQPGRSLRLSCAASGFTFSSYGMHWVRQAPGKGLEWVAVISYDGSNKYYADSVKGRFTISRANSKNTLYLQMNSLRAEDTAVYYCARPRAYYGAYGSSFDYWGQGTQVTVSS
VL: EIVMTQSPSSVSASVGDRVAITCRASQGISSWLAWYQQKPGKAPKLLIYAASSLQSGVPSRFSGSGSGTDFTLTISSLQPEDFATYYCQQSYSTPLTFGGGTKVDIK
notes: also called clone F131; F131 mAb
B2: F131-LD038 (antibody, V domains shown)
VH: B1 VH
VL: B1 VL
modifications: drug-linker LD038 (PB038, maleimide-PEG unit-Val-Cit-PAB-exatecan) on cysteines freed by TCEP reduction; positions not given
notes: Antibody-drug conjugate of F131 (IgG1) with LD038; also called anti-huFOLR-1 conjugate F131-LD038; F131-038

Key:
[1] = molecular target: T1, human FOLR1 extracellular domain linked to His tag (human, UniProt P15328 25-233, limits assumed); assay: BLI, global 1:1 fit (500 nM row)
T1 construct: extracellular domain; It may be the same product as m13; also called Hu-FRα; Hu-Ag; not shown: His tag
T1 sequence (P15328 25-233 limits assumed): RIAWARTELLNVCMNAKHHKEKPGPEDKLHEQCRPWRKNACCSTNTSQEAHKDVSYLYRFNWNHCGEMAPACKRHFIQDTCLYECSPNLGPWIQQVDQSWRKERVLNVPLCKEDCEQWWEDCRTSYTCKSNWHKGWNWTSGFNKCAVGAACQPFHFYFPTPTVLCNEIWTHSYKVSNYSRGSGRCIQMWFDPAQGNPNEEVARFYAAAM

[2] = molecular target: T2, cynomolgus monkey FOLR1 extracellular domain linked to His tag (cynomolgus monkey, UniProt A0A2K5U044 25-233); assay: BLI, global 1:1 fit (500 nM row)
T2 construct: extracellular domain; Antigen in solution in BLI; It may be the same product as m14; also called Cyno-Ag; not shown: His tag
T2 sequence (A0A2K5U044 entry or part of it): as the sequence (P15328 25-233 limits assumed) above, with I2T, W4R, R37K, A146P, H171Y counted along it

[3] = molecular target: T1, human FOLR1 extracellular domain linked …; assay: BLI, global 1:1 fit (15.6 nM row)
[4] = molecular target: T3, human FOLR2 extracellular domain linked to His tag (human, UniProt P14207 17-230, limits assumed); assay: BLI, global 1:1 fit (15.6 nM row)
T3 construct: extracellular domain; Antigen in solution in BLI; also called Hu-FRb; not shown: His tag
T3 sequence (P14207 17-230 limits assumed): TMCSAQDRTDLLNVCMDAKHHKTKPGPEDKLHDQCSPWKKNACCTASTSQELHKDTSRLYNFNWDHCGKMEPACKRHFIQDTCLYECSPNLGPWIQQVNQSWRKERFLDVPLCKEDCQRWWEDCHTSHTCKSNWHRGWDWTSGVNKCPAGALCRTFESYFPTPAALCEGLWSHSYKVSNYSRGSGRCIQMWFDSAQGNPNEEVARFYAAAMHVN

[5] = molecular target: T4, human FOLR1 protein, His Tag (ACRO FO1-H52H1) (human, UniProt P15328 25-233); assay: ELISA, coated hFOLR1-His, supernatant 1x
T4 construct: Bought protein coated on ELISA plates; not shown: His tag
T4 sequence (P15328 25-233 limits assumed): as the sequence (P15328 25-233 limits assumed) above

[6] = molecular target: T4, human FOLR1 protein, His Tag (ACRO …); assay: ELISA, coated hFOLR1-His, supernatant 5x
[7] = molecular target: T4, human FOLR1 protein, His Tag (ACRO …); assay: ELISA, coated hFOLR1-His, supernatant 25x
[8] = molecular target: T1, human FOLR1 extracellular domain linked …; assay: BLI, Ag 125 nM over Ab on anti-hIgG Fc tip
[9] = molecular target: T2, cynomolgus monkey FOLR1 extracellular …; assay: BLI, Ag 125 nM over Ab on anti-hIgG Fc tip
[10] = molecular target: T1, human FOLR1 extracellular domain linked …; assay: BLI, Ag 250 nM over Ab on anti-hIgG Fc tip
[11] = molecular target: T2, cynomolgus monkey FOLR1 extracellular …; assay: BLI, Ag 250 nM over Ab on anti-hIgG Fc tip
[12] = molecular target: T4, human FOLR1 protein, His Tag (ACRO …); assay: ELISA, coated hFOLR1-His, HEK293 supernatant
[13] = molecular target: T5, cynomolgus FOLR1 protein, His Tag (ACRO F01-C52H8) (cynomolgus, UniProt A0A2K5U044 25-233); assay: ELISA, coated cyno FOLR1-His, supernatant 1x
T5 construct: Bought protein coated on ELISA plates; also called Cynomolgus/Rhesus macaque FOLR1, Protein, His Tag; not shown: His tag
T5 sequence (A0A2K5U044 entry or part of it): as the sequence (P15328 25-233 limits assumed) above, with I2T, W4R, R37K, A146P, H171Y counted along it

[14] = molecular target: T5, cynomolgus FOLR1 protein, His Tag (ACRO …); assay: ELISA, coated cyno FOLR1-His, supernatant 5x
[15] = molecular target: T5, cynomolgus FOLR1 protein, His Tag (ACRO …); assay: ELISA, coated cyno FOLR1-His, supernatant 25x
[16] = molecular target: T4, human FOLR1 protein, His Tag (ACRO …); assay: ratio of OD450 on hFOLR1 to OD450 on anti-human IgG Fc
[17] = molecular target: T6, human FOLR3 extracellular domain linked to His tag (human, UniProt P41439 23-245, limits assumed); assay: BLI, global 1:1 fit (250 nM row); all responses below quantification
T6 construct: extracellular domain; Antigen in solution in BLI; also called Hu-FRg; not shown: His tag
T6 sequence (P41439 23-245 limits assumed): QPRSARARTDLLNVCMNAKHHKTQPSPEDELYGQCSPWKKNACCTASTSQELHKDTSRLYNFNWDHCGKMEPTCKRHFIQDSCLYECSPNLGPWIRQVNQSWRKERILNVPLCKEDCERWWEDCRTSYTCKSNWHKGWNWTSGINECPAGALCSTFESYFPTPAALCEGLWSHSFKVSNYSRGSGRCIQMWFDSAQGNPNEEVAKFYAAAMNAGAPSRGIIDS

[18] = molecular target: T7, rat FOLR1 extracellular domain linked to His tag (rat); assay: BLI, global 1:1 fit (31.3 nM row); all responses below quantification
T7 construct: extracellular domain; Antigen in solution in BLI; also called Rat-Ag

[19] = molecular target: T7, rat FOLR1 extracellular domain linked …; assay: BLI, global 1:1 fit (7.82 nM row); all responses below quantification
[20] = molecular target: T1, human FOLR1 extracellular domain linked …; assay: BLI, global 1:1 fit (500 nM row); Table 11 run (FOLR family panel, Hu-FRα)
[21] = molecular target: T1, human FOLR1 extracellular domain linked …; assay: BLI, global 1:1 fit (500 nM row); Table 12 run (species FOLR α panel, Hu-Ag)
[22] = molecular target: T8, mouse FOLR1 extracellular domain linked to His tag (mouse, UniProt P35846 25-232, limits assumed); assay: BLI, global 1:1 fit (500 nM row); only the 500 nM response quantifiable; only the 500 nM response quantifiable; R^2 0.6807
T8 construct: extracellular domain; Antigen in solution in BLI; also called Mouse-Ag; not shown: His tag
T8 sequence (P35846 25-232 limits assumed): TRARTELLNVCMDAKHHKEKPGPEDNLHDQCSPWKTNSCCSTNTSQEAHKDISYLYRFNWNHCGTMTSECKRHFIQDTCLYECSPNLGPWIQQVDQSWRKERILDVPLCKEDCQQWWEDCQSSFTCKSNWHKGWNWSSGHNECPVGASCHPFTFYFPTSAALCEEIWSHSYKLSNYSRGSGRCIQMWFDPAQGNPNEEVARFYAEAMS

Binder	koff [1]	kon [1]	Kd [2]	koff [2]	kon [2]	Kd [3]	koff [3]	kon [3]	Kd [4]	koff [4]	kon [4]	Response [8]	Response [9]	Response [10]	Response [11]	koff [17]	koff [18]	kon [18]	koff [19]	kon [19]	also measured
B1	0.000338 s⁻¹	221000 M⁻¹ s⁻¹	8.15 nM	0.00157 s⁻¹	193000 M⁻¹ s⁻¹	5.3 nM	0.0012 s⁻¹	226000 M⁻¹ s⁻¹	142 nM	0.0784 s⁻¹	552000 M⁻¹ s⁻¹	0.146	0.177	0.162	0.209	0.217 s⁻¹	1.03 s⁻¹	5490 M⁻¹ s⁻¹	1.03 s⁻¹	5490 M⁻¹ s⁻¹	OD450 [5]: 1.61 OD450; OD450 [6]: 1.52 OD450; OD450 [7]: 1.38 OD450; OD450 [12]: 2.35 OD450; OD450 [13]: 1.2 OD450; OD450 [14]: 1.27 OD450; OD450 [15]: 1.09 OD450; Target binding/IgG level [16]: 1.02; kon [17]: 1660 M⁻¹ s⁻¹; Kd [20]: 5.3 nM; Kd [21]: 1.53 nM; Kd [22]: 2960 nM
B2	0.00107 s⁻¹	224000 M⁻¹ s⁻¹	8.82 nM	0.0016 s⁻¹	181000 M⁻¹ s⁻¹	4.79 nM	0.00121 s⁻¹	252000 M⁻¹ s⁻¹	84.4 nM	0.0813 s⁻¹	963000 M⁻¹ s⁻¹	0.158	0.152	0.184	0.18	0.233 s⁻¹	0.224 s⁻¹	2.64e+06 M⁻¹ s⁻¹	0.224 s⁻¹	2.64e+06 M⁻¹ s⁻¹	Kd [1]: 4.8 nM
